Experimental data from patent publication US10246721B2, “Sugar transporters” (CARNEGIE INSTITUTION OF WASHINGTON, priority 2009, dated 2019).

Tests used:
HEK293T cells = test: Glucose transport by GLUE/SWEET coexpressed with FRET glucose sensor (cytosolic or ER) in HEK293T cells; assay type: cell-based, human; conditions: for glucose accumulation in cytosol (negative FRET ratio change): cytosolic FRET glucose sensor
Experimental: Individual cells were analyzed by quantitative ratio imaging of CFP and Venus emission (acquisition intervals 5 sec; Fc/D corresponds to the normalized emission intensity ratio). HEK293T/FLIPglu600μΔ13V cells were perfused with medium, followed by square pulses of increasing glucose concentrations. […] Cells coexpressing the sensor and SWEET1 accumulated glucose as evidenced by the negative FRET ratio change with an amplitude that correlates with the increasing external glucose supply (blue line). Data points are mean±SD (n>10).
The sensor FLIPglu600μΔ13V^ER was targeted to the lumen of the ER (analysis performed as under FIG. 9A, acquisition intervals 10 sec). […] Cells coexpressing the sensor and SWEET1 accumulated glucose in the ER as evidenced by the negative ratio change induced by perfusion with glucose. Data points are mean±SD (n>10).
By utilizing the above described HEK293T cell system, a novel class of Arabidopsis sugar transporters was identified that are involved in nectar production in plants and with all hallmarks of the glucose transport activity described in root tips. A screening assay was then initiated in which candidate transporter genes from Arabidopsis were coexpressed with the FRET glucose sensor in the HEK293T cell expression system.
FRET analysis. Cell culture, transfection, image acquisition and FRET analysis were performed as described previously.
To identify novel glucose transporters from the reference plant Arabidopsis, genes encoding uncharacterized polytopic membrane proteins from the plant membrane protein database Aramemnon, available on the internet at “aramemnon.botanik.uni-koeln.de”,—were screened using a mammalian expression system. Candidate genes were coexpressed with a high-sensitivity FRET glucose sensor (i.e. FLIPglu600μΔ13V) in human embryonic kidney HEK293T cells, which are characterized by low endogenous glucose uptake activity. […] To determine whether SWEET1 can also mediate efflux from the cytosol, we expressed the FRET glucose sensor FLIPglu600μΔ13V^ER in the lumen of the endoplasmic reticulum (ER; FIG. 9B). Topologically, uptake across the plasma membrane (PM) is initiated from the extracellular side of the carrier, while ‘export’ to the ER is initiated from the cytoplasmic side of the transporter (FIG. 9C). […] SWEET1 may thus function as a glucose uniporter, for which the direction of transport depends only on the glucose gradient across the membrane. […] Furthermore, the mRNAs levels of known human glucose transporters in the GLUT and SGLT families were not induced in HEK293T cells expressing SWEET1 (FIG. 12B). […] In support of a role in cellular uptake and efflux, a constitutively expressed SWEET1-YFP fusion localizes to the PM in Arabidopsis leaves (FIG. 9G). […] Other proteins, possibly related to SWEET1, may be involved in sugar transport in roots.

yeast strain YSL2-1 = test: Complementation growth assay of yeast strain YSL2-1/EBY4000 lacking all 18 hexose transporter genes; assay type: cell-based; conditions: for sensitivity to 2-deoxyglucose: various 2-Deoxy-glucose levels; for complementation on fructose: 2% fructose; for complementation of yeast hexose transport mutant on glucose: 2% glucose; for complementation on mannose: 2% mannose
Experimental: Cells expressing yeast homolog, HXTS, or mammalian homolog, GLUT1, were used as controls. Os8N3 and RAG1AP1 were homologs from rice and mammalian. The yeast cells were grown in SD-Ura liquid medium with 2% maltose to early log phase and 5 m of serious dilutions were spotted on the media containing YPM or SD-URA containing 2% of maltose, fructose, or mannose. […]
(§1) Cells expressing yeast homolog, HXT5, or mammalian homolog, GLUT1, were used as controls. Os8N3 and RAG1AP1 were homologs from rice and mammalian. The yeast cells were grown in SD-Ura liquid medium with 2% maltose to early log phase and 5 m of serious dilutions were spotted on the media containing YPM or SD-URA containing 2% glucose.
as §1, with “various 2-Deoxy-glucose levels.” for “2% glucose.”
A modified version of the yeast strain EBY4000 (hxt1 through −17Δ::loxP gal2Δ::loxP stl1Δ::loxP agt1Δ::loxP ydl247wΔ::loxP yjr160cΔ::loxP) carrying a cytosolic invertase (YSL2-1) was transformed with SWEETs and HXTS and grown on SD (synthetic deficient) medium supplemented with 2% maltose and required auxotrophic markers. For complementation growth assays, cells were grown overnight in liquid minimum medium to OD600˜0.6 and then diluted to OD600˜0.2 using water. Serial dilutions (1×, 5×, 25×, and 125×) were plated on SD media containing either 2% maltose (as control) or 2% glucose and the relevant auxotrophic markers. Growth was documented by scanning (CanoScan, Canon) the plates after 2-5 days at 30° C.

| Molecule | glucose accumulation in cytosol (negative FRET ratio change) (HEK293T cells) | sensitivity to 2-deoxyglucose (yeast strain YSL2-1) | complementation of yeast hexose transport mutant on glucose (yeast strain YSL2-1) | complementation on mannose (yeast strain YSL2-1) | other results |
| --- | --- | --- | --- | --- | --- |
| GLUE12: Arabidopsis GLUE/SWEET sugar transporter protein | function as glucose transporters with different activities | – | – | – | – |
| GLUE13: Arabidopsis GLUE/SWEET sugar transporter protein (protein, UniProt Q9FGQ2 1-294, looked up) Bidirectional sugar …: MALTNNLWAFVFGILGNIISFVVFLAPVPTFVRICKKKSTEGFQSLPYVSALFSAMLWIYYAMQKDGTAFLLITINAFGCVIETIYIVLFVSYANKKTRISTLKVLGLLNFLGFAAIVLVCELLTKGSTREKVLGGICVGFSVSVFAAPLSIMRVVVRTRSVEFMPFSLSLFLTISAVTWLFYGLAIKDFYVALPNVLGAFLGAVQMILYIIFKYYKTPVAQKTDKSKDVSDHSIDIAKLTTVIPGAVLDSAVHQPPALHNVPETKIQLTEVKSQNMTDPKDQINKDVQKQSQV | function as glucose transporters with different activities | – | – | – | – |
| GLUE17: Arabidopsis GLUE/SWEET sugar transporter protein (protein, UniProt Q84WN3 1-241, looked up) Bidirectional sugar …: MAEASFYIGVIGNVISVLVFLSPVETFWKIVKRRSTEEYKSLPYICTLLGSSLWTYYGIVTPGEYLVSTVNGFGALVETIYVSLFLFYAPRHLKLKTVDVDAMLNVFFPIAAIVATRSAFEDEKMRSQSIGFISAGLNIIMYGSPLSAMKTVVTTKSVKYMPFWLSFFLFLNGAIWAVYALLQHDVFLLVPNGVGFVFGTMQLILYGIYRNAKPVGLSNGLSEIAQDEEEGLTSRVEPLLS | – | transport 2-deoxyglucose | – | – | – |
| GLUE16: Arabidopsis GLUE/SWEET sugar transporter protein (protein, UniProt Q9LUR4 1-230, looked up) Bidirectional sugar …: MADLSFYVGVIGNVISVLVFLSPVETFWRIVQRRSTEEYECFPYICTLMSSSLWTYYGIVTPGEYLVSTVNGFGALAESIYVLIFLFFVPKSRFLKTVVVVLALNVCFPVIAIAGTRTLFGDANSRSSSMGFICATLNIIMYGSPLSAIKTVVTTRSVQFMPFWLSFFLFLNGAIWGVYALLLHDMFLLVPNGMGFFLGIMQLLIYAYYRNAEPIVEDEEGLIPNQPLLA | – | transport 2-deoxyglucose | – | – | – |
| GLUE7: Arabidopsis GLUE/SWEET sugar transporter protein (protein, UniProt Q8LBF7 1-258, looked up) Bidirectional sugar …: MVFAHLNLLRKIVGIIGNFIALCLFLSPTPTFVRIVKKKSVEEYSPIPYLATLINCLVWVLYGLPTVHPDSTLVITINGTGILIEIVFLTIFFVYCGRQKQRLIISAVIAAETAFIAILAVLVLTLQHTTEKRTMSVGIVCCVFNVMMYASPLSVMKMVIKTKSVEFMPFWLSVAGFLNAGVWTIYALMPFDPFMAIPNGIGCLFGLAQLILYGAYYKSTKRIMAERENQPGYVGLSSAIARTGSEKTANTNQEPNNV | – | transport 2-deoxyglucose | transport glucose | transport fructose and mannose | complementation on fructose (yeast strain YSL2-1): transport fructose |
| GLUE14: Arabidopsis GLUE/SWEET sugar transporter protein (protein, UniProt Q9SW25 1-281, looked up) Bidirectional sugar …: MVLTHNVLAVTFGVLGNIISFIVFLAPVPTFVRICKKKSIEGFESLPYVSALFSAMLWIYYALQKDGAGFLLITINAVGCFIETIYIILFITYANKKARISTLKVLGLLNFLGFAAIILVCELLTKGSNREKVLGGICVGFSVCVFAAPLSIMRVVIRTKSVEFMPFSLSLFLTISAITWLFYGLAIKDFYVALPNILGAFLGAVQMILYVIFKYYKTPLVVDETEKPKTVSDHSINMVKLSSTPASGDLTVQPQTNPDVSHPIKTHGGDLEDQMDKKMPN | – | transport 2-deoxyglucose | – | – | – |
| GLUE3: Arabidopsis GLUE/SWEET sugar transporter protein (protein, UniProt Q6NQN5 1-263, looked up) Bidirectional sugar …: MGDKLRLSIGILGNGASLLLYTAPIVTFSRVFKKKSTEEFSCFPYVMTLFNCLIYTWYGLPIVSHLWENLPLVTINGVGILLESIFIFIYFYYASPKEKIKVGVTFVPVIVGFGLTTAISALVFDDHRHRKSFVGSVGLVASISMYGSPLVVMKKVIETRSVEYMPFYLSFFSFLASSLWLAYGLLSHDLFLASPNMVATPLGILQLILYFKYKNKKDLAPTTMVITKRNDHDDKNKATLEFVVDVDRNSDTNEKNSNNASSI | – | transport 2-deoxyglucose | – | – | – |
| GLUE5: Arabidopsis GLUE/SWEET sugar transporter protein (protein, UniProt Q9FM10 1-240, looked up) Bidirectional sugar …: MTDPHTARTIVGIVGNVISFGLFCAPIPTMVKIWKMKSVSEFKPDPYVATVLNCMMWTFYGLPFVQPDSLLVITINGTGLFMELVYVTIFFVFATSPVRRKITIAMVIEVIFMAVVIFCTMYFLHTTKQRSMLIGILCIVFNVIMYAAPLTVMKLVIKTKSVKYMPFFLSLANFMNGVVWVIYACLKFDPYILIPNGLGSLSGIIQLIIYITYYKTTNWNDDDEDKEKRYSNAGIELGQA | – | transport 2-deoxyglucose | transport glucose | transport mannose | – |
| GLUE8: Arabidopsis sugar transporter protein expressed in the tapetum, paralog of SWEET1 (protein, UniProt Q8LFH5 1-239, looked up) Bidirectional sugar …: MVDAKQVRFIIGVIGNVISFGLFAAPAKTFWRIFKKKSVEEFSYVPYVATVMNCMLWVFYGLPVVHKDSILVSTINGVGLVIELFYVGVYLMYCGHKKNHRRNILGFLALEVILVVAIILITLFALKGDFVKQTFVGVICDVFNIAMYGAPSLAIIKVVKTKSVEYMPFLLSLVCFVNAGIWTTYSLIFKIDYYVLASNGIGTFLALSQLIVYFMYYKSTPKEKTVKPSEVEISATERV | function as glucose transporters with different activities | transport 2-deoxyglucose | transport glucose | transport mannose | glucose efflux from cytosol into the ER (HEK293T cells; ER-targeted sensor FLIPglu600μΔ13V ER): ‘efflux’ glucose from the cytosol into the ER; glucose accumulation in cytosol (negative FRET ratio change) (HEK293T cells; listed as SWEET8): also functions as a uniporter; complementation of yeast hexose transport mutant on glucose (yeast strain YSL2-1; listed as SWEET8/RPG1): complements the yeast glucose transport mutant |
| GLUE4: Arabidopsis GLUE/SWEET sugar transporter protein (protein, UniProt Q944M5 1-251, looked up) Bidirectional sugar …: MVNATVARNIAGICGNVISLFLFLSPIPTFITIYKKKKVEEYKADPYLATVLNCALWVFYGLPMVQPDSLLVITINGTGLAIELVYLAIFFFFSPTSRKVKVGLWLIGEMVFVGIVATCTLLLFHTHNQRSSFVGIFCVIFVSLMYIAPLTIMSKVIKTKSVKYMPFSLSLANFLNGVVWVIYALIKFDLFILIGNGLGTVSGAVQLILYACYYKTTPKDDEDEEDEENLSKVNSQLQLSGNSGQAKRVSA | – | transport 2-deoxyglucose | transport glucose | transport fructose and mannose | complementation on fructose (yeast strain YSL2-1): transport fructose |
